Data from PMC6362288.

Target: protein G (UniProt P19909)
Assay: ELISA; polystyrene wells modified with the PrG-Gra complex (PrG adsorbed on graphene, 2:1); mAb 5, 10, 15 µg/ml; unreacted mAb in the supernatant by Bradford, bound mAb by Anti-IgGk-HRP at 450 nm

- absorbance (Anti-IgGk-HRP) against PS modified with the PrG alone: 2 fold
Substance: mouse monoclonal IgG2b (mAb) (antibody)
